Data reported in patent US20250313629A1.

Target: cynomolgus Lag3 on cells (HEK293F cells transiently transfected with cyno-LAG-3; activated cynomolgus PBMC/T cells) (cynomolgus)
Experiment: flow cytometry on CD3/CD28-activated cynomolgus PBMC, antibody at 10 ug/ml

Substance: DP47 (human isotype) (antibody)
- percentage of Lag3 positive cells: 9.19%
